From US20110112279A1 (published 2011) come the findings set out here.

For assay [1], the target named is T1, human STOP-1 short form (L94-K243) with C-terminal His tag, baculovirus expressed (UniProt Q96CG8 94-243). Description: competitive ELISA. A general note: ELISA stands for enzyme-linked immunosorbent assay.
In assay [2] the target is T2, human STOP-1, full length, C-terminal 8xHis tag (h762HIP; M1-K243-His), expressed in CHO-psgb cells (UniProt Q96CG8 31-243). Description: competitive ELISA.
T2 sequence (Q96CG8 other isoform, or with tags, fused parts or gaps): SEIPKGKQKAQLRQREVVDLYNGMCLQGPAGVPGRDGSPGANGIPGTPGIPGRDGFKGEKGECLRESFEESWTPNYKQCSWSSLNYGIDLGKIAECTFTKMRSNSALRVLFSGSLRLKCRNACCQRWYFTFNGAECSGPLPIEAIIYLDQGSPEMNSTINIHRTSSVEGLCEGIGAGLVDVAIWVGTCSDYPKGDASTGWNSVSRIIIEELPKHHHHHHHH
For assay [3], the target named is T2, human STOP-1, full length, C-terminal …. Description: competitive ELISA; F/F: coated full length, competed full length.
For assay [4], the target named is T1, human STOP-1 short form (L94-K243) with …. Description: competitive ELISA; S/S: coated short form, competed short form.

Broadly, the Kd is a measure of binding affinity in units of concentration. Low values mean a tighter complex, high ones a looser complex.

T1 sequence (Q96CG8 94-243): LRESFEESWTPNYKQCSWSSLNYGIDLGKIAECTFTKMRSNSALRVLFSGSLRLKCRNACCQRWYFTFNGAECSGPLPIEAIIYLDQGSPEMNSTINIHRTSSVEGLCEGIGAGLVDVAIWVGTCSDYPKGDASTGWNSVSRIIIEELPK

B1: S4 Fab (antibody)
chain 1: MKKNIAFLLASMFVFSIATNAYADIQMTQSPSSLSASVGDRVTITCRASQDVSTAVAWYQQKPGKAPKLLIYSASFLYSGVPSRFSGSGSGTDFTLTISSLQPEDFATYYCQQSYTTPPTFGQGTKVEIKRTVAAPSVFIFPPSDEQLKSGTASVVCLLNNFYPREAKVQWKVDNALQSGNSQESVTEQDSKDSTYSLSSTLTLSKADYEKHKVYACEVTHQGLSSPVTKSFNRGECGASSGMADPNRFRGKDLA
chain 2: MKKNIAFLLASMFVFSIATNAYAEVQLVESGGGLVQPGGSLRLSCAASGFTISGSWIHWVRQAPGKGLEWVAWIAPYSGATDYADSVKGRFTISADTSKNTAYLQMNSLRAEDTAVYYCAREGGLYWVFDYWGQGTLVTVSSASTKGPSVFPLAPSSKSTSGGTAALGCLVKDYFPEPVTVSWNSGALTSGVHTFPAVLQSSGLYSLSSVVTVPSSSLGTQTYICNVNHKPSNTKVDKKVEPKSCDKTHL
Turning to B1, the Kd came out at 1.9 nM in assay [1], 13 nM in assay [2] and 13.4 nM in assay [3].

B2: S4 IgG (full-length human IgG1; LPG3-humankappaG6 and LPG4-humanHC-S4), expressed in CHO cells (antibody)
light: DIQMTQSPSSLSASVGDRVTITCRASQDVSTAVAWYQQKPGKAPKLLIYSASFLYSGVPSRFSGSGSGTDFTLTISSLQPEDFATYYCQQSYTTPPTFGQGTKVEIKRTVAAPSVFIFPPSDEQLKSGTASVVCLLNNFYPREAKVQWKVDNALQSGNSQESVTEQDSKDSTYSLSSTLTLSKADYEKHKVYACEVTHQGLSSPVTKSFNRGEC
heavy: not shown
Take B2: the Kd came out at 0.5 nM in assay [1], 3 nM in assay [2], 0.5 nM in assay [4] and 3.1 nM in assay [3].

B3: S7 IgG (full-length human IgG1; LPG3-humankappaG6 and LPG4-humanHC-S7), expressed in CHO cells (antibody, V domains shown)
VH: EVQLVESGGGLVQPGGSLRLSCAASGFTISGSDIHWVRQAPGKGLEWVGRISPYGGNTNYADSVKGRFTISADTSKNTAYLQMNSLRAEDTAVYYCARVGGLKLLFDYWGQGTLVTVSS
VL: DIQMTQSPSSLSASVGDRVTITCRASQDVSTAVAWYQQKPGKAPKLLIYSASFLYSGVPSRFSGSGSGTDFTLTISSLQPEDFATYYCQQSYTTPPTFGQGTKVEIKR
In the case of B3, the Kd stood at 7.3 nM in assay [1], 41 nM in assay [2], 7.3 nM in assay [4] and 41 nM in assay [3].
